Measurements from the DeepSol protein solubility set.

assay: soluble on expression in E. coli; label from the status in PepcDB or PDB records

Row | Sequence | soluble on expression in E. coli
1 | MGSDKIHHHHHHMCMDRAICGNFYYGGKFDYLEVIVSDGKIAGIKKDAGNVPKTNYDGAILPAATDIHVHFRTPGETEKEDFGSGSLSAIYGGTTYVMDMPNNRFPITDYNAFGDKLGSIDSTSFADFSLYSMETGKNAMLLDRRSIGLKVYLGGSTNSTGTEVIEEGDIRKINEMNYPVVFHGESERCLKTHQMEEKNLRDHNLARPIDCEIEAAKYVSGLDIKTKIMAHVSSPDVTGNFLREVTPHHLLLNDEMPLGSFGKVNPPLRDSRTQKRLLDDYISGKFDILSSDHAPHTEDDKREFEFAKSGIIGVETRVPLFLALAQKKIVPLDVLYRTAIENPPSIFGIKKGKIEIGYDADFMVIDFTSMKRINDNRLHSKFPVSPFNGMDAIFPSHVIMRGNVVIDRYEDISDPMGVFIPKPQKE | not soluble
2 | MGSDKIHHHHHHMKWSEYANLAQQSLEKFYLADTKEQFLNNFYPTENPEEDNKVFNYWWLAHLVEVRLDAYLRTKKQADLEVAEKTYLHNKNRNGGTLIHDFYDDMLWNALAAYRLYKATGKSIYLEDAQLVWQDLVDTGWNDIMGGGFAWRRPQMYYKNTPVNAPFIILSCWLYNELNETKYLEWAMKTYEWQTKVLVREDGFVEDGINRLEDGTIDYEWKFTYNQGVYIGANLELYRITKEAKYLDTANKTAAISLKELTEDGIFKDEGNGGDEGLFKGIFYRYFTDLIEETANKTYRDFVLNSCQILVENAKLDGYLLMGMNWKEKPSGKIPYSAELSGMIALEMAAKLE | not soluble
3 | MRPSAPAISRQTLLDEPRPGSLTIGYEPSEEAQPTENPPRFSWLPDIDDGARYVLRISTDPGFTDKKTLVFEDLAWNFFTPDEALPDGHYHWCYALWDQKSATAHSNWSTVRSFEISEALPKTPLPGRSARHAAAQTSHPRLWLNSEQLSAFADAVAKDPNHCGWAEFYEKSVEPWLERPVMPEPQPYPNNTRVATLWRQMYIDCQEVIYAIRHLAIAGRVLGRDDLLDASRKWLLAVAAWDTKGATSRAYNDEAGFRVVVALAWGYDWLYDHLSEDERRTVRSVLLERTREVADHVIAHARIHVFPYDSHAVRSLSAVLTPACIALQGESDEAGEWLDYTVEFLATLYSPWAGTDGGWAEGPHYWMTGMAYLIEAANLIRSYIGYDLYQRPFFQNTGRFPLYTKAPGTRRANFGDDSTLGDLPGLKLGYNVRQFAGVTGNGHYQWYFDHIKADATGTEMAFYNYGWWDLNFDDLVYRHDYPQVEAVSPADLPALAVFDDIGWATIQKDMEDPDRHLQFVFKSSPYGSLSHSHGDQNAFVLYAHGEDLAIQSGYYVAFNSQMHLNWRRQTRSKNAVLIGGKGQYAEKDKALARRAAGRIVSVEEQPGHVRIVGDATAAYQVANPLVQKVLRETHFVNDSYFVIVDEVECSEPQELQWLCHTLGAPQTGRSSFRYNGRKAGFYGQFVYSSGGTPQISAVEGFPDIDPKEFEGLDIHHHVCATVPAATRHRLVTLLVPYSLKEPKRIFSFIDDQGFSTDIYFSDVDDERFKLSLPKQF | soluble
4 | MAHHHHHHMRKKLVLPLSIGRGFSSWDDGSDGHEWKSRALAEKRLLALTYLGDVNKRVQIHDAIRLRGEVNKQAIRACELPTFFQTKETNEAENLQEIDYHSLLSMIEGEFEVDTLAHIAPSDANFLKTEFLQCDDSAEVKLLGQWSNLRRDTADYNNYASIPDGERNAWSAWYLRNVRPGKTEND | not soluble
5 | MSLKIIPGATGYFNKTLNSNQFDNEDAIKGKVNSIYGKSIDYSTMRHRDIIIAKIDLFIQRITHNLWTAREKNVTLIKQINDLKMCVNEYIGDCTDEELNDREFIASVVDRAIFHFAINSICNPEDNKDATLIERCTFDVETKNGLPSTVQLFYEESKDNEPLANIHLQAIGSGFLTFVNACQEHDDNSLKLFASLLISLSYSSVYSDFAGRVNINEYNDNYLKAQFEELSQRDMKKYLGEMKRLADGGEMNFDGYLDKMSHLVNEGTLAPDILSKMRDAAPKLIDFAKSFDPNSKEKIKIYTGTSKLIYDLFGVKSEKEGHHHHHH | soluble
6 | MGSSHHHHHHSSGLVPRGSHMSSTMSADQSNRARPVIRIKENPEDFTVEEVADIPKSDNGKYTIIKAEIIDWDTNRIVEEIASALRISRKRISYAGTKDKRARKIQYFCINAPVDVSVLAFKGFRIIDRFRSDHYLRLGDLTANHFRIRFQGASDDYIEQRYEKMMECGGFPNYFGQQRFGSRRRNTHDVGRLIVTGRYEDAVRLYLYDERYDIEDYRREFIETLDYNRALEKFPRTLRFERSIIGYYAQHHTFKGAFDALPKNLSIMFVHAYQSYLFNRMLSLRIEKYGLNRAIPGDTAFPVDRYFNPDKSRPVEVNEVNVDTINQLIERDRLRVALPIIGSEVGPDQSDFGEIEKKILEEEHVDRSMFRNSEYPHLSSTGDRRIVSAKPVDFSVSNSVMDFTLGRGIYATTLISTFGDLVDFDAESDGF | soluble
